The series concerns the target DNA polymerase beta (pol beta), [13CH3-Met,13CH3-Ile] labelled (UniProt P06746 1-335). Put plainly: NMR 1H-13C HMQC chemical shift perturbation, methyl-TROSY CPMG; binary complex; 5 mM MgCl2; ~175 uM pol beta, 10% excess DNA; D2O buffer: 50 mM Tris-d11 pH 7.6, 150 mM KCl, 5 mM MgCl2 (none for apoenzyme), 1 mM CDTA, 1 mM DTT, 0.1 mM AEBSF, 0.04% NaN3, 50 uM DSS; 35 C for assignment of.

For the molecule GGCGAAGCCTGGTGCGAAGCACC (structured_DNA) [1-nt-gapped double hairpin DNA (templating dT in gap)], the binding result is listed as “binds”.

Values taken from article PMC6101544.
